Holding throughout (experiment): yeast two-hybrid (LexA-KMD bait, B42-ARR prey, X-gal)
Test [1] concerns the target T1, ARR21 (subfamily-3) (Arabidopsis, UniProt Q9LYP5 1-613, limits assumed).
T1 sequence (looked up): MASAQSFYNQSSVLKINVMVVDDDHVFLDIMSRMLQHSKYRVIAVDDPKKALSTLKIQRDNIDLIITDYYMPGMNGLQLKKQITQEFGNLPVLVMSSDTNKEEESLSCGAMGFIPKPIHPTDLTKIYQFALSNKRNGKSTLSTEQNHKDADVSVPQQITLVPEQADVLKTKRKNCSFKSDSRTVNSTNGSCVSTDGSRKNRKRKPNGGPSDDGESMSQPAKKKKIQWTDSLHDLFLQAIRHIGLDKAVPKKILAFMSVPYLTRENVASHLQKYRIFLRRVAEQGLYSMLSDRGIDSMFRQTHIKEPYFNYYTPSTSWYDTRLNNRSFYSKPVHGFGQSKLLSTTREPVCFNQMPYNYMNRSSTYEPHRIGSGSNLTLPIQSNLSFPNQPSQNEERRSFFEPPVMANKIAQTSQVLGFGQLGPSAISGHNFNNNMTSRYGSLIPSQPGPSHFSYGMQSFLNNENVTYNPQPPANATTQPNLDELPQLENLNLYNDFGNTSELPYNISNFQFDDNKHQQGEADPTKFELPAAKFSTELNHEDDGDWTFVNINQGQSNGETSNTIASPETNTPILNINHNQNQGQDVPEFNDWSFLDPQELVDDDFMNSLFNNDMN
From the text:
(§1) The DUPLEX-A™ system (OriGene Technologies) was used for yeast two-hybrid analysis of interactions. KMD cDNAs were cloned into the pGilda bait vector, which produces an in-frame fusion with the LexA DNA-binding domain. Type-B ARR coding sequences were cloned into the pJG4-5 prey vector, which produces a B42 activation domain. The yeast strain EGY48 (MATa, trp1, his3, ura3, leu2::6 LexAop-LEU2) that contains the lacZ reporter plasmid pSH18-34 was transformed with the appropriate “bait” and “prey” plasmids. Interactions were tested on 5-bromo-4-chloro-3-indolyl-p-D-galactopyranoside (X-gal) medium (Ryu, et al. (2005) Cell 120(3): 395-406).
(§2) The KMD proteins also interacted with ARR20 (type-B ARR subfamily-3), but not with ARR19 (subfamily-2) and ARR21 (subfamily-3). […] All four KMD proteins interacted with both ARR1 and ARR12 in a BiFC assay. Strong fluorescence was detected in the nuclei of cells, consistent with the subcellular localization of the type-B ARRs (Hwang & Sheen J (2001) Nature 413(6854):383-389; Mason, et al. (2004) Plant Physiol. 135(2):927-937).

Test [2] concerns the target T2, ARR20 (type-B ARR subfamily-3) (Arabidopsis, UniProt Q9LZJ8 1-426, limits assumed).
T2 sequence (looked up): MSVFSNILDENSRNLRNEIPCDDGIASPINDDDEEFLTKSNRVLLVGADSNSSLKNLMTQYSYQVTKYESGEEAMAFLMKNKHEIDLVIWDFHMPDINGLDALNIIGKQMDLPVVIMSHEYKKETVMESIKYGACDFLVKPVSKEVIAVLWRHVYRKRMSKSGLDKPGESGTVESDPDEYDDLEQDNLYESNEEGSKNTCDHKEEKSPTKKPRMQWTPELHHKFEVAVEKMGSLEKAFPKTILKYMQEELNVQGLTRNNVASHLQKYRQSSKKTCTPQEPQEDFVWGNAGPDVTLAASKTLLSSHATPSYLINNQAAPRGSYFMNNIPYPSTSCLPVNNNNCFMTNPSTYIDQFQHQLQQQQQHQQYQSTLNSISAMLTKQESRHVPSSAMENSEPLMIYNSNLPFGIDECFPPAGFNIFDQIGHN
Text: as §1, §2

Test [3] has as its target T3, ARR12 (Arabidopsis, UniProt P62598 1-596).
T3 construct: YFP^N or YFP^C fusion of the full-length cDNA in BiFC; also called AtARR12; type-B response regulator AtARR12
T3 sequence (looked up): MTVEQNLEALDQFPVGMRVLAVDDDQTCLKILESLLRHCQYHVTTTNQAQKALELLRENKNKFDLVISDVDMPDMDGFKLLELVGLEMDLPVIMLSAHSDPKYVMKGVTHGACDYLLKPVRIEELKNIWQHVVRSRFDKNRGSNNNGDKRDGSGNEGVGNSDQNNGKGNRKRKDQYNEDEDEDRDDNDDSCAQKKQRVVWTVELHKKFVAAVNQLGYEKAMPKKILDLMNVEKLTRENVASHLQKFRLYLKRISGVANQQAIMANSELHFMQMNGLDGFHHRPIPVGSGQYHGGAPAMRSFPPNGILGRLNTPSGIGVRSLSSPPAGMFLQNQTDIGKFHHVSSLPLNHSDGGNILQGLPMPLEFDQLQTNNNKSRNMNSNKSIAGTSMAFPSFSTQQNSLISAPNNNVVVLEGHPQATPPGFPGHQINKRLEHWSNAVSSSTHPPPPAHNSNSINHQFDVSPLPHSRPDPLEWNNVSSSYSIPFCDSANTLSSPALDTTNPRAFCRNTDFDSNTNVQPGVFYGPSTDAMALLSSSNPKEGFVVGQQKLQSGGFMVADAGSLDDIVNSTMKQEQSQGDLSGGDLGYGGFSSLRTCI
Text: as §1, §2

The target of test [4] is T4, ARR10 (Arabidopsis, UniProt O49397 1-552, limits assumed).
T4 construct: also called type-B response regulator ARR10
T4 sequence (looked up): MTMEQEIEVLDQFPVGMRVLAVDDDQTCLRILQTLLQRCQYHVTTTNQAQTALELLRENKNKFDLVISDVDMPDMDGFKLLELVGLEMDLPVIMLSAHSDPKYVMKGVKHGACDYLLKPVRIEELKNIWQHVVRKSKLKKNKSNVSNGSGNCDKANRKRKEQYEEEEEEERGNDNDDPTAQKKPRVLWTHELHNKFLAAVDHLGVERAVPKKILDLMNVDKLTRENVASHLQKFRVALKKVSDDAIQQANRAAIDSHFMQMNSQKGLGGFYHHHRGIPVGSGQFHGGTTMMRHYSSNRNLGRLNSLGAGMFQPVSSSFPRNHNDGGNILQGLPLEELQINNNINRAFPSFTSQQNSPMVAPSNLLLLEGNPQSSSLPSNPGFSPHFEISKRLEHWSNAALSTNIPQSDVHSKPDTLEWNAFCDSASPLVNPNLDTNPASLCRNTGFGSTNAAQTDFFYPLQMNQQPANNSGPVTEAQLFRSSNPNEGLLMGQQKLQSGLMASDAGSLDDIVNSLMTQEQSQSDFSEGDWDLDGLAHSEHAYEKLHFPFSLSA
Text: as §1, §2

B1: KISS ME DEADLY 2 (KMD2) (other, Arabidopsis, UniProt Q9LMR5 1-359, looked up)
chain: MELIPDLPETVAYECLLRSSYKQFPLMASVCKLWQREISLSDFFRHRKASGHSQELVVLSQARVDPVKELVSGNKTIPTPVYRISVLELGTGLRSELPPVPGHSNGLPLFCRLVSVGSDLVVLCGLDPVTWRTSDSVFVFSFLTSTWRVGKSMPGGPRSFFACASDSQRNVFVAGGHDEDKNAMMSALVYDVAEDRWAFLPDMGRERDECTAIFHAGKFHVIGGYSTEEQGQFSKTAESFDVTTWRWSPQGEEFLSSEMTMWPPICAAGENGDLYACCRRDLMMMKDDTWYKVGNLPADVCNVSYVAIRRSGNLVVIGSARYGEPSVGYNWDMSNSRWLKLETHDKYEGHVQAGCFLEI
notes: Full-length protein; LexA fusion in yeast two-hybrid, YFP^N or YFP^C fusion in BiFC; also called At1g15670
In the case of B1, the binding result is reported as “no binding” in test [1], “binds” in test [2], “binds” in test [3] and “binds” in test [4].

B2: KISS ME DEADLY 1 (KMD1) (other, Arabidopsis, UniProt Q9M8L2 1-354, looked up)
chain: MELIPNLPDDVARECLLRSSYQQFPVIASVCRAWNREVSLSQFLHQRKASRHSQELLILSQARVDPAGSGKIIATPEYRISVLESGSGLWTELPPIPGQTKGLPLFCRLVSVGSDLIVLGGLDPITWQAHDSVFVFSFLTSKWRVGATMPGVRRSFFGCASDSDRTVLVAGGHNEEKCALTSAMVYDVSEDKWTFLPDMARERDECKAVFHAGRFHVIGGYATEEQGQFSKTAESFDVSTWEWGPLTEDFLDDTGDTVSPPTCVAGGDLYACWGGDVMMFLNDKWQKVGQIPADVYNVTYVAVRPGMLIVIGNGKALAGYGEATVGYICDLSSSRWVKLETHGGHVQAGCFLEV
notes: Full-length protein; also called At1g80440
Take B2: the binding result in test [1] is “no binding”; in test [2], “binds”; in test [3], “binds”; in test [4], “binds”.

The record behind these values is patent publication US20160289698A1 (TRUSTEES OF DARTMOUTH COLLEGE, published 2016).
